Assay: yeast display, Sf9 membrane polyspecificity reagent, FACS + sequencing; frameworks hold sequencing errors
In short: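 Nanobodies came from a synthetic yeast display library in Saccharomyces cerevisiae BJ5465, induced with galactose for 36–48 hours and stained for 1 hour at 4 °C with 10% biotinylated, detergent-solubilized Sf9 membrane reagent. Cells were enriched on streptavidin microbeads and then FACS-sorted, with low and high (top ~1%) gates set on anti-HA fluorescence for expression and streptavidin fluorescence for reagent binding. Each polyreactivity label reflects the gate a clone came from. Genes were amplified by colony PCR, sequenced by MiSeq 2 × 250 and filtered by CDR length.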
For “QVQLVESGGGLVQAGGSLRLSCAASGFTFYRYAMGWYRQAPGKERELVAAISWSGGTTYYADSVKGRFTISRDNAKNTVYLQMNSLKPEDTAVYYCNARFIARSGYKVDYDYWGQGTQVTVSS”, the “polyreactivity (PSR sort gate)” value was “high polyreactivity”.
In the case of “QVQLVESGGGLVQAGGSLRLSCAASGFTFYRYAMGWYRQAPGKERELVAAITRTGSTYYADSVKGRFTISRDNAKNTVYLQMNSLKPEDTAVYYCARRSLYFPSYGLYYWGQGTQVTVSS”, the “polyreactivity (PSR sort gate)” value is reported as “high polyreactivity”.
With “QVQLVESGGGLVQAGGSLRLSCAASGFTFYRYAMGWYRQAPGKERELVAAITSRGTSTYYADSVKGRFTISRDNAKNTVYLQMNSLKPEDTAVYYCAVKGYRYGTRYDYWGQGTQVTVSS” the “polyreactivity (PSR sort gate)” value was “high polyreactivity”.
With “QVQLVESGGGLVQAGGSLRLSCAASGFTFYRYAMGWYRQAPGKERELVAAITSRSGITYYADSVKGRFTISRDNAKNTVYLQMNSLKPEDTAVYYCGAYVSRSTEFDYGYWGQGTQVTVSS” the “polyreactivity (PSR sort gate)” value was “high polyreactivity”.
For “QVQLVESGGGLVQAGGSLRLSCAASGFTFYRYGMGWYRPPPGKERELVAAINNDGTTNYADSVKGRFTISRDNAKNTVYLQLNSLKPEDTAVYYCAADYYRGRYSYRYDYWGQGTQVTVSS”, the “polyreactivity (PSR sort gate)” value was “low polyreactivity”.
For “QVQLVESGGGLVQAGGSLRLSCAASGFTFYRYTMGWSRQAPGKERELVAAISARGVSTYYADSVKGRFTISRDNAKNTVYLQMNCLKPEDTAVYYCYVSRYDSWGQGTQVTVSS”, the “polyreactivity (PSR sort gate)” value was “high polyreactivity”.
For “QVQLVESGGGLVQAGGSLRLSCAASGFTFYSNAMGWYRQAPGKERELVAAISFSGTRTYYADSVKGRFTISRDNAKNTVYLQMNSLKPEDTAVYYCNAVAYNYPRTYDYWGQGTQVTVSS”, the “polyreactivity (PSR sort gate)” value was “high polyreactivity”.
In the case of “QVQLVESGGGLVQAGGSLRLSCAASGFTFYSNDMGWYRQAPGKERELVAAISYSGGSTYYADSVKGRFTISRDNAKNTVYLQMKRLNPEDTAVYYCAAGGLQQGDYWGQGTQVTVSS”, the “polyreactivity (PSR sort gate)” value is reported as “low polyreactivity”.
For “QVQLVESGGGLVQAGGSLRLSCAASGFTFYSYAMGWYRQAPGKERELVAAISWSGTRTYYADSVKGRFTISRDNGKNTVYLQMTSLKPEVTAVYYCAGRGYRYGYGYWGQGTQVTVSS”, the “polyreactivity (PSR sort gate)” value was “high polyreactivity”.
In the case of “QVQLVESGGGLVQAGGSLRLSCAASGFTFYSYAMGWYRQAPGKERELVATISSGGRTYYADSVKGRFTISRDNAKNTVYLQMNSLKPEDTAVYYCAARWRPHPFAPPGYYSWGQGTQVTVSS”, the “polyreactivity (PSR sort gate)” value is reported as “high polyreactivity”.
For “QVQLVESGGGLVQAGGSLRLSCAASGFTFYTNAMGWYRQAPGHERELVARISRRGGSTYYADSVKGRFTISRDNAKNTVYLQMNSLKPEDTAVYYCNADGRAAVQYDYWGQGTQVTVSS”, the “polyreactivity (PSR sort gate)” value was “high polyreactivity”.
For “QVQLVESGGGLVQAGGSLRLSCAASGFTFYTNAMGWYRQAPGKERELVAAISKRGASTYYADSVKGRFTISRDNAKNTVYLQMNSLKPEDTAVYYCAASSRTHGSYDYWGQGTQVTVSS”, the “polyreactivity (PSR sort gate)” value was “high polyreactivity”.
For “QVQLVESGGGLVQAGGSLRLSCAASGFTFYTNAMGWYRQAPGKERELVAAITKSDGSTYYADSVKGRFTISRDNAKNTVYLQMNSLKPEDTAVYYCATERRYPYYGGIVIYDYWGQGTQVTVSS”, the “polyreactivity (PSR sort gate)” value was “low polyreactivity”.
With “QVQLVESGGGLVQAGGSLRLSCAASGFTFYTYAMGWYRQAPGKEMELVADISSGGSTNYADSVKGRFTISRDNAKNTVYLQMNSLKPEDTAVYYCSADYYFLDWYDYWGQGTQVTVSS” the “polyreactivity (PSR sort gate)” value was “low polyreactivity”.
In the case of “QVQLVESGGGLVQAGGSLRLSCAASGFTFYVNAMGWYRQATGKERELVAAISSRGGSTYYADSVKGRFTISRDNAKNTVYLQMNSLKPEDTAVYYCNRVRDQRRYEYWGQGTQVTVSS”, the “polyreactivity (PSR sort gate)” value is reported as “high polyreactivity”.
In the case of “QVQLVESGGGLVQAGGSLRLSCAASGFTFYVYARGWYRQAPGKERQLVAAISRSGGSTYYADSVKGSFTISRDNAKNTVYLQMQSLKPEDTAVYYCAVVQRYWYPGIVPYDYWGQGSQVTVSS”, the “polyreactivity (PSR sort gate)” value is reported as “high polyreactivity”.
With “QVQLVESGGGLVQAGGSLRLSCAASGFTFYWYDMGWYRQAPGKEWELVATMSPGGGTNYADSVKGRFTISRDNAKNTVSLQMNSLKPEDTSVYYCAADGSAGYQWGYDFEGDYWGQGTQLTVSS” the “polyreactivity (PSR sort gate)” value was “high polyreactivity”.
With “QVQLVESGGGLVQAGGSLRLSCAASGFTFYYAMGWYRQAPGKERELVAAISSSGARTYYADSVKGRFTISRDNAKYTVYLQMNSLKPEDTAVYYCAARRYYKFYYWGQGTQVTVSS” the “polyreactivity (PSR sort gate)” value was “high polyreactivity”.
With “QVQLVESGGGLVQAGGSLRLSCAASGFTFYYNAMGWYRQAPGKERELVASIRSGGSTKYADSVKGRFTISRDNAKNTVYLQMNSLKPEDTAVYYCAKERYHISFFYQMVYWGQGTQVTVSS” the “polyreactivity (PSR sort gate)” value was “low polyreactivity”.
For “QVQLVESGGGLVQAGGSLRLSCAASGFTFYYNAMGWYRQAPGKERELVASISSNGTSTYYADSVKGRFTISRDNAMNTVYLQMNSLKPEDTAVYYCNVDIFDPRTYDYWGQGTQVTVSS”, the “polyreactivity (PSR sort gate)” value was “low polyreactivity”.
With “QVQLVESGGGLVQAGGSLRLSCAASGFTFYYNAMGWYRQAPGKERELVASISSNGTSTYYADSVKGRFTISRDNAMYTVYLQMNSLKPEDTAGYYCAADDVCVYWSSTHNWARGDYWGQGSQVTVSS” the “polyreactivity (PSR sort gate)” value was “low polyreactivity”.
In the case of “QVQLVESGGGLVQAGGSLRLSCAASGFTFYYYAMGWYRQAPGKERELVAAINWSGGTTYYADSVKGRFTISRDNAKNTVYLQMNSLKPEDTAVYYCAVSVFTVAPYRRYDYWGQGTQVTVSS”, the “polyreactivity (PSR sort gate)” value is reported as “high polyreactivity”.
With “QVQLVESGGGLVQAGGSLRLSCAASGFTFYYYAMGWYRQAPGKERELVAAISIGGSTYYAGSVKGRFTISRHNEKNTVYLQMNSLKPEDTAVYYCNVVFTYWPPGTARYDYSGQGTQVTVSS” the “polyreactivity (PSR sort gate)” value was “high polyreactivity”.
With “QVQLVESGGGLVQAGGSLRLSCAASGFTFYYYAMGWYRQAPGKERELVAAISSSGGSTSYADSVKGRFTISRDNAKNTVYLQMNSLKPEDTAVYYCAAVYWQSGRGKMCYWGQGTQVTVSS” the “polyreactivity (PSR sort gate)” value was “high polyreactivity”.
With “QVQLVESGGGLVQAGGSLRLSCAASGFTFYYYAMGWYRQAPGKESELVAAITWSGDITSYADSVKGRFTISRDNAKNTVYLQMNSLKPEDTAVYYCAAYVYVPGYNAAYDYWGQGTQVTVSS” the “polyreactivity (PSR sort gate)” value was “low polyreactivity”.
In the case of “QVQLVESGGGLVQAGGSLRLSCAASGFTFYYYMGCYRQAPGKERELVAAITSGDTTYYADSVKGRFTISRDNAKNTVYLQMNSLKPEDTAVYYCNVDQAIYRWVPWEMDYWGQGTQVTVSS”, the “polyreactivity (PSR sort gate)” value is reported as “low polyreactivity”.
In the case of “QVQLVESGGGLVQAGGSLRLSCAASGFTIAYNAMGWYRQAPGKERDLVAAISSSGGRTYYADSVKGRFTISRDNAKNTVYFQMNSLKPEDTAVYYCATRPKVAYEYVYWGQGTQVTVSS”, the “polyreactivity (PSR sort gate)” value is reported as “high polyreactivity”.
With “QVQLVESGGGLVQAGGSLRLSCAASGFTIDGYAMGWYRQAPGKERELVAAIRRGGRTKYADSVKGRFTISRDNAKNTVYLQMNSLKPEDTAVYYCAADRSRRGHLTHGYWGQGTQVTVSS” the “polyreactivity (PSR sort gate)” value was “high polyreactivity”.
With “QVQLVESGGGLVQAGGSLRLSCAASGFTIFEDNAMGSYRQAPGKERELVAAITSGGSTNYADSVKGRFTISRDNAKNTVYLQMNSLKPEDTAVYYCAYDRVPLKTRFYYFPWGYDYWGQGTQVTVSS” the “polyreactivity (PSR sort gate)” value was “low polyreactivity”.
In the case of “QVQLVESGGGLVQAGGSLRLSCAASGFTIFLNAMGWYRQAPGKERELVAAITVSGSSTYYADSVKGRFTISRDNAKNTVYLQMNSLKPEDTAVYYCNAEIYSPYYTYDYWGQGTQVTVSS”, the “polyreactivity (PSR sort gate)” value is reported as “low polyreactivity”.
With “QVQLVESGGGLVQAGGSLRLSCAASGFTILRYAMGWDRQAPGTERELVAAIDWSGGSTYYADSVKGRFTISRDNAKNTVYLQMNSLKPEDTAVYYCNARTINVPSRFNYWGQGTQVTVSS” the “polyreactivity (PSR sort gate)” value was “low polyreactivity”.
With “QVQLVESGGGLVQAGGSLRLSCAASGFTIRRNAMGWYRQAPGKERELVAAISRSGGSTYADSVKGRFTISRDNAKNTVYLQMNSLKPEDTAVYYFASDHSYYRYTYTALIAEFYYWGQGTQVTVSS” the “polyreactivity (PSR sort gate)” value was “low polyreactivity”.
With “QVQLVESGGGLVQAGGSLRLSCAASGFTIRRYAMGWYRQAPGKERELVAAITTGGSTYYADSVKGRFTISRDNAKNTVYLQMNSLKPEDTAVYYCATDTYPYPLYYSPGAYGYWGQGTQVTVSS” the “polyreactivity (PSR sort gate)” value was “high polyreactivity”.
With “QVQLVESGGGLVQAGGSLRLSCAASGFTIRSYVMGWYRQAPGKERELVAAIRRSGGSTYYADSVKGRFTISRDNAKNTVYVQLNSLKPEDTAFYYCNAPHHRYDWGQGTQVTVSS” the “polyreactivity (PSR sort gate)” value was “high polyreactivity”.
With “QVQLVESGGGLVQAGGSLRLSCAASGFTIRWYTMGWYRQAPGKERELVAAISRGGSTNYADSVKGRFTISRDNAKNTVYLQMNSLKPEDTAVYYCATSAPLVTSSGYGYWGQGTQVTVSS” the “polyreactivity (PSR sort gate)” value was “high polyreactivity”.
With “QVQLVESGGGLVQAGGSLRLSCAASGFTISAYAMGWYRQAPGKERQLVASISRGGITNYADSVKGRFTISRDNAKNTVYLQMTSLKPEETAVYYCAAETRNHGILYDYWGQGTQVTVSS” the “polyreactivity (PSR sort gate)” value was “high polyreactivity”.
For “QVQLVESGGGLVQAGGSLRLSCAASGFTISKYAMGWYRQAPGKERELVAVISSGGRTNYADSVKGRFTISRDNAKNTVYLQMNSLKPEDTAVDYCAAIGWRTRSRFEYWGQGTQVTVSS”, the “polyreactivity (PSR sort gate)” value was “high polyreactivity”.
In the case of “QVQLVESGGGLVQAGGSLRLSCAASGFTISRYTMGWYRQAPGKERELVASITRRAGSTYYADSVKGRYTISRDNAQTTVYLQMYSLKPEDTAVYYCAAYGWTFSKVDLEMDYWGQGTQVTVSS”, the “polyreactivity (PSR sort gate)” value is reported as “high polyreactivity”.
In the case of “QVQLVESGGGLVQAGGSLRLSCAASGFTIVPYAMGWYRQAPGNERELVAAISRRGSRTYYADSVKGRFTISRDNAKNTVYLQMNSLKAEDTAVYYCAAKLSAVKAAYDYWGQGTQVTVSS”, the “polyreactivity (PSR sort gate)” value is reported as “high polyreactivity”.
In the case of “QVQLVESGGGLVQAGGSLRLSCAASGFTIVYYAMGWYRQAPGKERELVAVISSRGGSTYYADSVKGRFTISRDNAKNTVYLQMNSLKPEDTAVYYCAARGRGQPFVRYDYWGQGTQVTVSS”, the “polyreactivity (PSR sort gate)” value is reported as “high polyreactivity”.
In the case of “QVQLVESGGGLVQAGGSLRLSCAASGFTIWDYAMGWYRQAPGKERELVAAISRRGGTTYYADSVKGRFTISRDNAKNTVYLQMNSLKPEETAVYYCATYSYTWLNYYWGQGTQVTVSS”, the “polyreactivity (PSR sort gate)” value is reported as “high polyreactivity”.
In the case of “QVQLVESGGGLVQAGGSLRLSCAASGFTIWPYAMGWYRQPPGKERELVAGITRNGGSTYYADSVKGRFTISRDNAKNTVYLQMNSLKPEDTAVYYCNTKYAVEFDYWGQGTQVTVSS”, the “polyreactivity (PSR sort gate)” value is reported as “low polyreactivity”.
With “QVQLVESGGGLVQAGGSLRLSCAASGFTIWQNAMGWYRQAPGKERELVAGIRLSGGSTYADSVKGRFTISRDNAKNTVYLQMNSLKAEDTAVYYCNAAYKNSPYDYWGQGTQVTVSS” the “polyreactivity (PSR sort gate)” value was “high polyreactivity”.
